Test system: Escherichia coli TOP10
Assay: shrunken log2 fold change of peptide-encoding DNA abundance (4.5 h post-induction vs induction); higher = less antimicrobial activity (less host growth inhibition)
Conditions: time post-induction: 4.5 h; library: site-saturation at positions 5, 18, 19, 20
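Further: peptides expressed intracellularly from a pBAD plasmid library in pooled LB shake-flask culture, induced with 0.3% L-arabinose, DNA abundance read by NGS, three biological replicates, DESeq2 with apeglm shrinkage.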

Sequence	shrunken log2 fold change
RRIRNRPPRLPRPRPRPAATPRP	0.285
RRIRDRPPRLPRPRPRPNVFPRP	-0.268
RRIRYRPPRLPRPRPRPHHWPRP	-0.892
RRIRPRPPRLPRPRPRPTHEPRP	0.466
RRIRLRPPRLPRPRPRPMCRPRP	-0.0985
RRIRERPPRLPRPRPRPSCWPRP	0.101
RRIRQRPPRLPRPRPRPIPTPRP	-0.0272
RRIRLRPPRLPRPRPRPSHRPRP	-0.0457
RRIRCRPPRLPRPRPRPPQDPRP	1.08
RRIRMRPPRLPRPRPRPCTWPRP	-0.0287
RRIRERPPRLPRPRPRPSCSPRP	-0.412
RRIRRRPPRLPRPRPRPVIAPRP	0.654
RRIRLRPPRLPRPRPRPCSMPRP	-0.00844
RRIRARPPRLPRPRPRPDTTPRP	0.0242
RRIRQRPPRLPRPRPRPERRPRP	0.0099
RRIRHRPPRLPRPRPRPDISPRP	-0.278
RRIRHRPPRLPRPRPRPPMGPRP	0.343
RRIRPRPPRLPRPRPRPVVAPRP	0.578
RRIRWRPPRLPRPRPRPLKNPRP	0.245
RRIRMRPPRLPRPRPRPMRVPRP	0.035
RRIRDRPPRLPRPRPRPWNEPRP	-0.195
RRIRHRPPRLPRPRPRPNAIPRP	0.0158
RRIRHRPPRLPRPRPRPSFNPRP	-0.583
RRIRVRPPRLPRPRPRPVDMPRP	0.00782
RRIRERPPRLPRPRPRPPKGPRP	-0.16

Sequence	shrunken log2 fold change
RRIRSRPPRLPRPRPRPTFSPRP	0.019
RRIRVRPPRLPRPRPRPSQKPRP	-0.0127
RRIRHRPPRLPRPRPRPTKWPRP	0.0132
RRIRLRPPRLPRPRPRPHQPPRP	0.18
RRIRRRPPRLPRPRPRPPNYPRP	0.0616
RRIRPRPPRLPRPRPRPVFYPRP	-0.316
RRIRYRPPRLPRPRPRPCHNPRP	-1.52
RRIRSRPPRLPRPRPRPNGKPRP	-0.437
RRIRARPPRLPRPRPRPIYRPRP	-0.0972
RRIRPRPPRLPRPRPRPMFSPRP	-0.295
RRIRCRPPRLPRPRPRPEAEPRP	0.656
RRIRCRPPRLPRPRPRPAYVPRP	-0.288
RRIRHRPPRLPRPRPRPRRIPRP	0.0543
RRIRVRPPRLPRPRPRPVNAPRP	-0.0836
RRIRQRPPRLPRPRPRPHRGPRP	0.0502
RRIRTRPPRLPRPRPRPYPDPRP	-0.0217
RRIRGRPPRLPRPRPRPIFKPRP	0.359
RRIRSRPPRLPRPRPRPKMRPRP	0.269
RRIRCRPPRLPRPRPRPMHAPRP	0.315
RRIRMRPPRLPRPRPRPEEGPRP	0.0237
RRIRVRPPRLPRPRPRPWMMPRP	-0.0912
RRIRQRPPRLPRPRPRPCGTPRP	0.0105
RRIRARPPRLPRPRPRPFKTPRP	0.0511
RRIRARPPRLPRPRPRPMLLPRP	-0.0981
RRIRIRPPRLPRPRPRPHPTPRP	-0.216

Sequence	shrunken log2 fold change
RRIRNRPPRLPRPRPRPKVDPRP	0.147
RRIRYRPPRLPRPRPRPEAKPRP	-0.109
RRIRKRPPRLPRPRPRPEHCPRP	0.0607
RRIRKRPPRLPRPRPRPNYMPRP	-0.117
RRIRTRPPRLPRPRPRPASMPRP	-0.212
RRIRLRPPRLPRPRPRPFHVPRP	-0.0193
RRIRNRPPRLPRPRPRPKFKPRP	-0.508
RRIRRRPPRLPRPRPRPSHGPRP	0.145
RRIRCRPPRLPRPRPRPPHCPRP	0.971
RRIRTRPPRLPRPRPRPIIEPRP	-0.565
RRIRLRPPRLPRPRPRPYQLPRP	-0.253
RRIRHRPPRLPRPRPRPTPAPRP	0.681
RRIRFRPPRLPRPRPRPLQMPRP	0.236
RRIRARPPRLPRPRPRPSPVPRP	0.355
RRIRTRPPRLPRPRPRPKQAPRP	0.0749
RRIRCRPPRLPRPRPRPHQKPRP	0.00571
RRIRYRPPRLPRPRPRPNAGPRP	-0.31
RRIRLRPPRLPRPRPRPQGIPRP	-0.0354
RRIRRRPPRLPRPRPRPDGQPRP	0.298
RRIRGRPPRLPRPRPRPLNDPRP	0.388
RRIRVRPPRLPRPRPRPNWNPRP	-0.318
RRIRRRPPRLPRPRPRPPYRPRP	0.113
RRIRARPPRLPRPRPRPSDHPRP	-0.134
RRIRGRPPRLPRPRPRPMAMPRP	0.138
RRIRLRPPRLPRPRPRPCATPRP	0.331

— the supplement of paper PMC9112550, “Optimization of the antimicrobial peptide Bac7 by deep mutational scanning” (BMC Biology, 2022)
